For experiment [1], the target named is T1, recombinant murine transferrin receptor 1 (mTfR1), extracellular domain fused to a His-tag (murine, UniProt Q62351 89-763).
T1 construct: Position of the His-tag (N or C) unknown; also called recombinant mTfR1; murine TfR1; not shown: His-tag
Put plainly: BLI (Octet), mTfR1 captured on holo-transferrin sensors, analyte 50 nM. In general terms: Biolayer interferometry detects binding as a change in optical thickness at a sensor tip.

The target of a further experiment is T2, recombinant Aβ1-42.
T2 construct: Coated at 0.5 µg/ml on ELISA plates; also called Amyloid Beta (Aβ1-42)
T2 sequence (peptide, as listed by the source): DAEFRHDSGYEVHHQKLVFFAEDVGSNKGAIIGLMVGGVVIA
Put plainly: indirect ELISA, plates coated with recombinant Aβ1-42. On the technique in general: In an ELISA, binding on a coated surface is turned into a signal by an enzyme label.

For experiment [2], the target named is T1, recombinant murine transferrin receptor …. Put plainly: BLI (Octet), mTfR1 captured on biotinylated human holo-transferrin on streptavidin sensors. On the procedure:
Binding of expressed constructs to mTfR1 was assessed by Bio-Layer Interferometry (Octet RED384, ForteBio). High-precision streptavidin sensors were loaded in two consecutive steps: first with 20 μg/ml of biotinylated human holo-transferrin (Sigma) during 180 s and then with 20 μg/ml recombinant mTfR1, produced as described in Example 4, during 180 s. Thereafter, association of the samples to the loaded sensors was measured for 120 s, followed by dissociation for 300 s. Binding was analyzed with samples diluted to 17.5 μg/ml for mAb158-scLc-8D3-Ig.1 and mAb158-scLc-8D3-Ig.2, to 18 μg/ml for mAb158-scLc-8D3-Ig.3 and to 4.9 μg/ml for 8D3 Fab (corresponding to 100 nM of respective binding molecule). The response from a buffer sample was subtracted. All samples were diluted in 1× Kinetics buffer (ForteBio). The same buffer was used for baseline and dissociation steps. […] As controls, the 8D3 Fab and the antibody mAb158 IgG were included.

T1 sequence (Q62351 89-763): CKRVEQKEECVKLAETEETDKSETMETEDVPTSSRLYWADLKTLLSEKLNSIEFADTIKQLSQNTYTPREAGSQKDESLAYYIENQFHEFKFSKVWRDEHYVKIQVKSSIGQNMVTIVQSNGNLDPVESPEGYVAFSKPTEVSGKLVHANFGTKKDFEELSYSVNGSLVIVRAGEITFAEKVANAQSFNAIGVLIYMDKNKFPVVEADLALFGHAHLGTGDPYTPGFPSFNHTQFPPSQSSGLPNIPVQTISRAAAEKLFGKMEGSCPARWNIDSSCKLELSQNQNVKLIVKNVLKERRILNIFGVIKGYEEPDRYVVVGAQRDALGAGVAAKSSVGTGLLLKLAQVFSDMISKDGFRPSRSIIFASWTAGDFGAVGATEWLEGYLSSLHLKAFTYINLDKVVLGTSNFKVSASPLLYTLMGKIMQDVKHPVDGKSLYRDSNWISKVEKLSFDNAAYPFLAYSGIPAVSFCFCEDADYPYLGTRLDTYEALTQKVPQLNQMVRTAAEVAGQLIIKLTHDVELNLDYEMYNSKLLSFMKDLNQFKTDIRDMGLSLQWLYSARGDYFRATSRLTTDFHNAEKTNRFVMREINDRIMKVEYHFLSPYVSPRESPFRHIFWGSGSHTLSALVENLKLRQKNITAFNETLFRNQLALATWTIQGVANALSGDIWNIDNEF

B1: mAb158-scLc-8D3-Ig.14 (bispecific antibody, human IgG1, kappa)
heavy: not shown
chain: DIVMTQAPLSLPVSLGDQASISCRSSQSIVHSNGNTYLEWYLQKPGQSPKLLIYKVSNRFSGVPDRFSGSGSGTDFTLKISRVEAEDLGIYYCFQGSHVPPTFGGGTKLEIKRADAAPTVSIFPPSSEQLTSGGASVVCFLNNFYPKDINVKWKIDGSERQNGVLNSWTDQDSKDSTYSMSSTLTLTKDEYERHNSYTCEATHKTSTSPIVKSFNRNECGGGGSGGGGSGGGGSGGGGSGGGGSDIQMTQSPASLSASLEEIVTITCQASQDIGNWLAWYQQKPGKSPQLLIYGATSLADGVPSRFSGSRSGTQFSLKISRVQVEDIGIYYCLQAYNTPWTFGGGTKLELKRGGGGSGGGGSGGGGSEVQLVESGGGLVQPGNSLTLSCVASGFTFSNYGMHWIRQAPKKGLEWIAMIYYDSSKMNYADTVKGRFTISRDNSKNTLYLEMNSLRSEDTAMYYCAVPTSHYVVDVWGQGVSVTVSSGGGGSGGGGSGGGGSDIVMTQAPLSLPVSLGDQASISCRSSQSIVHSNGNTYLEWYLQKPGQSPKLLIYKVSNRFSGVPDRFSGSGSGTDFTLKISRVEAEDLGIYYCFQGSHVPPTFGGGTKLEIKRADAAPTVSIFPPSSEQLTSGGASVVCFLNNFYPKDINVKWKIDGSERQNGVLNSWTDQDSKDSTYSMSSTLTLTKDEYERHNSYTCEATHKTSTSPIVKSFNRNEC
notes: Format [LC-L1-scBM-L2-LC]; also called mAb158-scLc-Ig.14
B1: the binding result (in experiment [1]; in the experiment with recombinant Aβ1-42) was “binds” throughout.

B2: mAb158 IgG (antibody, V domains shown)
VH: EVKLMESGGGLVQPGGSRKLSCAASGFTFSSFGMHWVRQAPEKGLEWVAYISSGSSTIYYGDTVKGRFTISRDNPKNTLFLQMTSLRSEDTAMYYCAREGGYYYGRSYYTMDYWGQGTSVTVSS
VL: DIVMTQAPLSLPVSLGDQASISCRSSQSIVHSNGNTYLEWYLQKPGQSPKLLIYKVSNRFSGVPDRFSGSGSGTDFTLKISRVEAEDLGIYYCFQGSHVPPTFGGGTKLEIKR
notes: also called unmodified mAb158 IgG control; unmodified mAb158 control
Regarding B2, the binding result in experiment [2] was “no binding (tested: 50 nM)”.

B3: mAb158-scLc-8D3-Ig.4 (bispecific antibody, human IgG1, kappa)
heavy: not shown
chain: DIVMTQAPLSLPVSLGDQASISCRSSQSIVHSNGNTYLEWYLQKPGQSPKLLIYKVSNRFSGVPDRFSGSGSGTDFTLKISRVEAEDLGIYYCFQGSHVPPTFGGGTKLEIKRADAAPTVSIFPPSSEQLTSGGASVVCFLNNFYPKDINVKWKIDGSERQNGVLNSWTDQDSKDSTYSMSSTLTLTKDEYERHNSYTCEATHKTSTSPIVKSFNRNECGGGGSGGGGSGGGGSGGGGSGGGGSGGGGSDIVMTQAPLSLPVSLGDQASISCRSSQSIVHSNGNTYLEWYLQKPGQSPKLLIYKVSNRFSGVPDRFSGSGSGTDFTLKISRVEAEDLGIYYCFQGSHVPPTFGGGTKLEIKRADAAPTVSIFPPSSEQLTSGGASVVCFLNNFYPKDINVKWKIDGSERQNGVLNSWTDQDSKDSTYSMSSTLTLTKDEYERHNSYTCEATHKTSTSPIVKSFNRNECGGGGSGGGGSGGGGSEVQLVESGGGLVQPGNSLTLSCVASGFTFSNYGMHWIRQAPKKGLEWIAMIYYDSSKMNYADTVKGRFTISRDNSKNTLYLEMNSLRSEDTAMYYCAVPTSHYVVDVWGQGVSVTVSSGGGGSGGGGSGGGGSDIQMTQSPASLSASLEEIVTITCQASQDIGNWLAWYQQKPGKSPQLLIYGATSLADGVPSRFSGSRSGTQFSLKISRVQVEDIGIYYCLQAYNTPWTFGGGTKLELKR
notes: Format [LC-L1-LC-L2-scBM]
Regarding B3, the binding result in experiment [2] was “binds”.

B4: mAb158-scLc-8D3-Ig.15 (bispecific antibody, human IgG1, kappa)
heavy: not shown
chain: DIVMTQAPLSLPVSLGDQASISCRSSQSIVHSNGNTYLEWYLQKPGQSPKLLIYKVSNRFSGVPDRFSGSGSGTDFTLKISRVEAEDLGIYYCFQGSHVPPTFGGGTKLEIKRADAAPTVSIFPPSSEQLTSGGASVVCFLNNFYPKDINVKWKIDGSERQNGVLNSWTDQDSKDSTYSMSSTLTLTKDEYERHNSYTCEATHKTSTSPIVKSFNRNECGGGGSGGGGSGGGGSGGGGSGGGGSDIQMTQSPASLSASLEEIVTITCQASQDIGNWLAWYQQKPGKSPQLLIYGATSLADGVPSRFSGSRSGTQFSLKISRVQVEDIGIYYCLQAYNTPWTFGGGTKLELKRGGGGSGGGGSGGGGSEVQLVESGGGLVQPGNSLTLSCVASGFTFSNYGMHWIRQAPKKGLEWIAMIYYDSSKMNYADTVKGRFTISRDNSKNTLYLEMNSLRSEDTAMYYCAVPTSHYVVDVWGQGVSVTVSSGGGGSGGGGSGGGGSGGGGSDIVMTQAPLSLPVSLGDQASISCRSSQSIVHSNGNTYLEWYLQKPGQSPKLLIYKVSNRFSGVPDRFSGSGSGTDFTLKISRVEAEDLGIYYCFQGSHVPPTFGGGTKLEIKRADAAPTVSIFPPSSEQLTSGGASVVCFLNNFYPKDINVKWKIDGSERQNGVLNSWTDQDSKDSTYSMSSTLTLTKDEYERHNSYTCEATHKTSTSPIVKSFNRNEC
notes: Format [LC-L1-scBM-L2-LC]; also called mAb158-scLc-Ig.15
For B4, the binding result (in experiment [1]; in the experiment with recombinant Aβ1-42) was “binds” each time.

B5: mAb158-scLc-8D3-Ig.5 (bispecific antibody, human IgG1, kappa)
heavy: not shown
chain: DIVMTQAPLSLPVSLGDQASISCRSSQSIVHSNGNTYLEWYLQKPGQSPKLLIYKVSNRFSGVPDRFSGSGSGTDFTLKISRVEAEDLGIYYCFQGSHVPPTFGGGTKLEIKRADAAPTVSIFPPSSEQLTSGGASVVCFLNNFYPKDINVKWKIDGSERQNGVLNSWTDQDSKDSTYSMSSTLTLTKDEYERHNSYTCEATHKTSTSPIVKSFNRNECGGGGSGGGGSGGGGSGGGGSGGGGSGGGGSGGGGSGGGGSGGGGSGGGGSDIVMTQAPLSLPVSLGDQASISCRSSQSIVHSNGNTYLEWYLQKPGQSPKLLIYKVSNRFSGVPDRFSGSGSGTDFTLKISRVEAEDLGIYYCFQGSHVPPTFGGGTKLEIKRADAAPTVSIFPPSSEQLTSGGASVVCFLNNFYPKDINVKWKIDGSERQNGVLNSWTDQDSKDSTYSMSSTLTLTKDEYERHNSYTCEATHKTSTSPIVKSFNRNECGGGGSGGGGSGGGGSEVQLVESGGGLVQPGNSLTLSCVASGFTFSNYGMHWIRQAPKKGLEWIAMIYYDSSKMNYADTVKGRFTISRDNSKNTLYLEMNSLRSEDTAMYYCAVPTSHYVVDVWGQGVSVTVSSGGGGSGGGGSGGGGSDIQMTQSPASLSASLEEIVTITCQASQDIGNWLAWYQQKPGKSPQLLIYGATSLADGVPSRFSGSRSGTQFSLKISRVQVEDIGIYYCLQAYNTPWTFGGGTKLELKR
notes: Format [LC-L1-LC-L2-scBM]
As for B5, the binding result in experiment [2] is on record as “binds”.

B6: mAb158-scLc-8D3-Ig.11 (bispecific antibody, human IgG1, kappa)
heavy: not shown
chain: DIVMTQAPLSLPVSLGDQASISCRSSQSIVHSNGNTYLEWYLQKPGQSPKLLIYKVSNRFSGVPDRFSGSGSGTDFTLKISRVEAEDLGIYYCFQGSHVPPTFGGGTKLEIKRADAAPTVSIFPPSSEQLTSGGASVVCFLNNFYPKDINVKWKIDGSERQNGVLNSWTDQDSKDSTYSMSSTLTLTKDEYERHNSYTCEATHKTSTSPIVKSFNRNECGGGGSGGGGSGGGGSGGGGSGGGGSEVQLVESGGGLVQPGNSLTLSCVASGFTFSNYGMHWIRQAPKKGLEWIAMIYYDSSKMNYADTVKGRFTISRDNSKNTLYLEMNSLRSEDTAMYYCAVPTSHYVVDVWGQGVSVTVSSGGGGSGGGGSGGGGSDIQMTQSPASLSASLEEIVTITCQASQDIGNWLAWYQQKPGKSPQLLIYGATSLADGVPSRFSGSRSGTQFSLKISRVQVEDIGIYYCLQAYNTPWTFGGGTKLELKRGGGGSGGGGSGGGGSDIVMTQAPLSLPVSLGDQASISCRSSQSIVHSNGNTYLEWYLQKPGQSPKLLIYKVSNRFSGVPDRFSGSGSGTDFTLKISRVEAEDLGIYYCFQGSHVPPTFGGGTKLEIKRADAAPTVSIFPPSSEQLTSGGASVVCFLNNFYPKDINVKWKIDGSERQNGVLNSWTDQDSKDSTYSMSSTLTLTKDEYERHNSYTCEATHKTSTSPIVKSFNRNEC
notes: Format [LC-L1-scBM-L2-LC]
As for B6, the binding result (in experiment [1]; in the experiment with recombinant Aβ1-42) was “binds” throughout.

B7: mAb158-scLc-Ig.6 (antibody, human IgG1, kappa)
heavy: not shown
chain: DIVMTQAPLSLPVSLGDQASISCRSSQSIVHSNGNTYLEWYLQKPGQSPKLLIYKVSNRFSGVPDRFSGSGSGTDFTLKISRVEAEDLGIYYCFQGSHVPPTFGGGTKLEIKRADAAPTVSIFPPSSEQLTSGGASVVCFLNNFYPKDINVKWKIDGSERQNGVLNSWTDQDSKDSTYSMSSTLTLTKDEYERHNSYTCEATHKTSTSPIVKSFNRNECGGGGSGGGGSGGGGSGGGGSGGGGSGGGGSGGGGSGGGGSGGGGSGGGGSDIVMTQAPLSLPVSLGDQASISCRSSQSIVHSNGNTYLEWYLQKPGQSPKLLIYKVSNRFSGVPDRFSGSGSGTDFTLKISRVEAEDLGIYYCFQGSHVPPTFGGGTKLEIKRADAAPTVSIFPPSSEQLTSGGASVVCFLNNFYPKDINVKWKIDGSERQNGVLNSWTDQDSKDSTYSMSSTLTLTKDEYERHNSYTCEATHKTSTSPIVKSFNRNEC
As for B7, in experiment [2], the binding result is recorded as “no binding”.

B8: mAb158-scLc-8D3-Ig.12 (bispecific antibody, human IgG1, kappa)
heavy: not shown
chain: DIVMTQAPLSLPVSLGDQASISCRSSQSIVHSNGNTYLEWYLQKPGQSPKLLIYKVSNRFSGVPDRFSGSGSGTDFTLKISRVEAEDLGIYYCFQGSHVPPTFGGGTKLEIKRADAAPTVSIFPPSSEQLTSGGASVVCFLNNFYPKDINVKWKIDGSERQNGVLNSWTDQDSKDSTYSMSSTLTLTKDEYERHNSYTCEATHKTSTSPIVKSFNRNECGGGGSGGGGSGGGGSGGGGSGGGGSEVQLVESGGGLVQPGNSLTLSCVASGFTFSNYGMHWIRQAPKKGLEWIAMIYYDSSKMNYADTVKGRFTISRDNSKNTLYLEMNSLRSEDTAMYYCAVPTSHYVVDVWGQGVSVTVSSGGGGSGGGGSGGGGSDIQMTQSPASLSASLEEIVTITCQASQDIGNWLAWYQQKPGKSPQLLIYGATSLADGVPSRFSGSRSGTQFSLKISRVQVEDIGIYYCLQAYNTPWTFGGGTKLELKRGGGGSGGGGSGGGGSGGGGSDIVMTQAPLSLPVSLGDQASISCRSSQSIVHSNGNTYLEWYLQKPGQSPKLLIYKVSNRFSGVPDRFSGSGSGTDFTLKISRVEAEDLGIYYCFQGSHVPPTFGGGTKLEIKRADAAPTVSIFPPSSEQLTSGGASVVCFLNNFYPKDINVKWKIDGSERQNGVLNSWTDQDSKDSTYSMSSTLTLTKDEYERHNSYTCEATHKTSTSPIVKSFNRNEC
notes: Format [LC-L1-scBM-L2-LC]; also called mAb158-scLc-Ig.12
Consider B8, for which the binding result (in experiment [1]; with recombinant Aβ1-42) was “binds” throughout.

Values taken from patent US20240141027A1 (BIOARCTIC, published 2024).
